# According to PMC7568657, “SppI Forms a Membrane Protein Complex with SppA and Inhibits Its Protease Activity in Bacillus subtilis” (mSphere, 2020):
# Substitutions are numbered along the chain they refer to. Names and notes keep the numbering of the source. Values joined by “and” are separate entries in the source; they are usually repeats but may differ in a detail not shown here. Identical values can stand only once.
# B1: SppI-FLAG (natural protein, B. subtilis, UniProt O34424 1-164, looked up)
# chain: MDATYEELERNDIKGPQEAELLTHAYAGFWVRFWAFLLDWLVIWGLNHLLVSPLFTVLDLPKTSGMFTFSAYSVTTLIVYLAYFALMTKYFRQTLGKMVFGLKVVSVKQDSKLTWSTVIFREVVGRYIDKIWILYIVVAFSPTKQGIHDYIADTTVVHEKLYRK
# notes: SppI (formerly YteJ), membrane protein of Bacillus subtilis; not shown: FLAG, C-terminal, kept
# B2: 6×His-SppA (enzyme, B. subtilis, UniProt O34525 1-335, looked up)
# chain: MNAKRWIALVIALGIFGVSIIVSISMSFFESVKGAQTDLTSLTDESQEKTLENGSPSSKIAVLEVSGTIQDNGDSSSLLGADGYNHRTFLKNLERAKDDKTVKGIVLKVNSPGGGVYESAEIHKKLEEIKKETKKPIYVSMGSMAASGGYYISTAADKIFATPETLTGSLGVIMESVNYSKLADKLGISFETIKSGAHKDIMSPSREMTKEEKNIMQSMVDNSYEGFVDVISKGRGMPKAEVKKIADGRVYDGRQAKKLNLVDELGFYDDTITAMKKDHKDLKNASVISYEESFGLGSLFSMGANKMFKSEIDFLNMREILSQSGSPRMMYLYAK
# notes: SppA, membrane protease of Bacillus subtilis, amplified from BSB1 chromosomal DNA; Purified alone it gave at least three bands of 32 to 34 kDa (C-terminal domain partly self-cleaved); purified with SppI the major band was about 36 kDa and still held most of the C terminus; source: E. coli ER2566, purified from the cytoplasmic membrane fraction (1% DDM, Ni-NTA, gel filtration); not shown: 6×His, …
# B3: 6×His-SppA^K199A (enzyme, B. subtilis, UniProt O34525 1-335, looked up)
# chain: B2 chain with K199A
# notes: SppA, membrane protease of Bacillus subtilis, with the active-site mutation K199A; band of about 36 kDa; not shown: 6×His, N-terminal, kept
# B4: 6×His-SppI (natural protein, B. subtilis, UniProt O34424 1-164, looked up)
# chain: B1 chain
# notes: SppI (formerly YteJ), membrane protein of Bacillus subtilis, amplified from BSB1 chromosomal DNA; source: E. coli ER2566, purified from the membrane fraction (1% DDM, Ni-NTA, gel filtration); not shown: 6×His, N-terminal, kept
# Columns and labels:
# SppI-SPA (B. subtilis) = SppI-SPA (B. subtilis) (UniProt O34424); assay: affinity purification with mass spectrometry; tandem affinity purification of SppI-SPA (calmodulin resin, then anti-FLAG resin) from B. subtilis membranes in 10 mM Tris-Cl pH 7.5, 150 mM NaCl, 1% DDM, 4°C; LC-MS/MS; two independent experiments
# [1] = target: the molecule itself; assay: SEC; gel filtration of affinity-purified proteins on Superdex 200 GL 10/300; apparent sizes against MW markers
Molecule,stoichiometry N (SppA per SppI (by the PAI values)) (SppI-SPA (B. subtilis)),stoichiometry N [1]
SppA (from UniProt O34525 1-335) (enzyme),1 and 2,–
B1,–,8
B2,–,8
B3,–,8
B4,–,8
